Reference: paper doi:10.1101/2024.10.01.616040 (bioRxiv, 2024)

B1: K3A/K4A-ORF1p (natural protein)
chain: MGAAQNRKTGNSKTQSASPPPKERSSSPATEQSWMENDFDELREEGFRRSNYSELREDIQTKGKEVENFEKNLEECITRITNTEKCLKELMELKTKARELREECRSLRSRCDQLEERVSAMEDEMNEMKREGKFREKRIKRNEQSLQEIWDYVKRPNLRLIGVPESDVENGTKLENTLQDIIQENFPNLARQANVQIQEIQRTPQRYSSRRATPRHIIVRFTKVEMKEKMLRAAREKGRVTLKGKPIRLTADLSAETLQARREWGPIFNILKEKNFQPRISYPAKLSFISEGEIKYFIDKQMLRDFVTTRPALKELLKEALNMERNNRYQPLQNHAKM
B2: ΔStammer-ORF1p (natural protein)
chain: MGKKQNRKTGNSKTQSASPPPKERSSSPATEQSWMENDFDELREEGFRRSNYSELREDIQTKGKEVENFEKNLEECITRITNTEKCLKELKTKARELREECRSLRSRCDQLEERVSAMEDEMNEMKREGKFREKRIKRNEQSLQEIWDYVKRPNLRLIGVPESDVENGTKLENTLQDIIQENFPNLARQANVQIQEIQRTPQRYSSRRATPRHIIVRFTKVEMKEKMLRAAREKGRVTLKGKPIRLTADLSAETLQARREWGPIFNILKEKNFQPRISYPAKLSFISEGEIKYFIDKQMLRDFVTTRPALKELLKEALNMERNNRYQPLQNHAKM

Legend:
His-TEV-ORF1p (human) = His-TEV-ORF1p (human) (UniProt Q9UN81); assay: mass photometry
mass photometry = target: the molecule itself; assay: mass photometry

Row | Molecule | percent of counts that are monomers (His-TEV-ORF1p (human)) [%] | stoichiometry N (mass photometry)
1 | His-TEV-ORF1p (from UniProt Q9UN81 1-338) (natural protein) | 30 | –
2 | B1 | – | 6
3 | B2 | – | 6
